Patent US20260070975A1

How the values were obtained:
[1] = molecular target: c-Kit expressed on the cell surface of M-07e cells (human) (UniProt P10721)
[2] = molecular target: c-Kit expressed on the cell surface of M-07e cells (human) (UniProt P10721); test: cell-based or functional assay

Chain of c-Kit expressed on the cell surface of M-07e cells (human) (P10721 26-976): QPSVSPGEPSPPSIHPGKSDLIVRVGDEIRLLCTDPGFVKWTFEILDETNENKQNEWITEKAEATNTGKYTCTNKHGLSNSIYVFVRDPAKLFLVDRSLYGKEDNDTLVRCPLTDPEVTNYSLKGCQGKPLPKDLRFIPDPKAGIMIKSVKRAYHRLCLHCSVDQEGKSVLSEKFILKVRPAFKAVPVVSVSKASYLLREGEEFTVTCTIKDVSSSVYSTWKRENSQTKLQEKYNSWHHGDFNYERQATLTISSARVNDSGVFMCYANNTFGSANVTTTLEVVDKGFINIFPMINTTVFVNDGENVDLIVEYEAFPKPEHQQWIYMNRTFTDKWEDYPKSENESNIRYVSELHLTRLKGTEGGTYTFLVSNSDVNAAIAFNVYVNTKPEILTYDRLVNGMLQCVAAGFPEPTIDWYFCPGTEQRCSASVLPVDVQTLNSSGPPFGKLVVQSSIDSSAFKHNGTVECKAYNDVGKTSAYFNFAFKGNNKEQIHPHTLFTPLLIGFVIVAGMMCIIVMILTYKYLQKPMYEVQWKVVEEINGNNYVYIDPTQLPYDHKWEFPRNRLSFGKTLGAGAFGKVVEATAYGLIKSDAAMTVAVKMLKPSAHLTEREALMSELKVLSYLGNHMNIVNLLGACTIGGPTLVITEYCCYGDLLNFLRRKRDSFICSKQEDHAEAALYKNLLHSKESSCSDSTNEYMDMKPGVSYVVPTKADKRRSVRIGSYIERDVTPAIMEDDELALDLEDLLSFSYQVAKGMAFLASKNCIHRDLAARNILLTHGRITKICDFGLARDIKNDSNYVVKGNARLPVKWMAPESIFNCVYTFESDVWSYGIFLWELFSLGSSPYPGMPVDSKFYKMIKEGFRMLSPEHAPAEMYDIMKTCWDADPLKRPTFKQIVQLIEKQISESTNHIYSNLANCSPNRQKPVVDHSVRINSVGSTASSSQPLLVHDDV

- IC50 (read off the curve) [1]: 0.1 to 0.2 nM
- IC50, inhibition of SCF-dependent proliferation of M-07e cells [2]: 0.408 nM
B1: CDX-0159 (antibody, INN chains, looked up, V domains shown)
VH: QVQLVQSGAEVKKPGASVKLSCKASGYTFTDYYINWVRQAPGKGLEWIARIYPGSGNTYYNEKFKGRATLTADKSTSTAYMQLSSLRSEDTAVYFCARGVYYFDYWGQGTTVTVSS
VL: DIVMTQSPSSLSASVGDRVTITCKASQNVRTNVAWYQQKPGKAPKALIYSASYRYSGVPDRFTGSGSGTDFTLTISSLQPEDFADYFCQQYNSYPRTFGGGTKVEIK
